This series addresses T1, P3L (nucleolin RRM2-derived peptide) (UniProt P19338).
T1 sequence: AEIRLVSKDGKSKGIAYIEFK
The series is described as follows: ITC. The note with it: 20 mM MOPS pH 7.0, 300 mM NaCl, 25 C.

The Kd is the free concentration of one partner at which half of the binding sites on the other are occupied at equilibrium, for simple one-to-one binding. Lower therefore signals a tighter complex. Consider SCA2CAG22 RNA (unexpanded), for which the Kd (unexpanded repeat) was 17.3 µM.

Take SCA2CAG42 RNA: the Kd (unit inferred, uM from context) is 5.6 µM.

Regarding SCA2CAG55 RNA, the Kd (unit inferred, uM from context) stood at 4.83 µM.

On to SCA2CAG72 RNA, for which, for the setting “one-site model, CD also showed structural change on RNA addition (FIG. 2)”, the Kd amounted to 0.66 µM.

For the origin of these results see US20170233442.
